Assay [1] concerns Hyp mice. In words: Urine and serum phosphate in Hyp mice after IP injection. Type of assay: in vivo, mouse. Conditions: vs vehicle; for serum phosphate: IP, FGF23^180-251 1 mg or FGF23^180-205 860 μg. The text has this: (§1) The anti-phosphaturic activity of FGF23 C-terminal peptides was examined in normal Sprague-Dawley rats and in Hyp mice, a mouse model of human X-linked hypophosphatemia (XLH) (Beck et al., “Pex/PEX Tissue Distribution and Evidence for a Deletion in the 3′ Region of the Pex Gene in X-linked Hypophosphatemic Mice,” J Clin Invest 99(6):1200-1209 (1997), Eicher et al., “Hypophosphatemia: Mouse Model for Human Familial Hypophosphatemic (Vitamin D-resistant) Rickets,” Proc Natl Acad Sci USA 73(12):4667-4671 […], Strom et al., “Pex Gene Deletions in Gy and Hyp Mice Provide Mouse Models for X-linked Hypophosphatemia,” Hum Mol Genet. 6(2):165-171 (1997), which are hereby incorporated by reference in their entirety). The animals were fed a complete, fixed formula diet containing 0.94% phosphate. Anesthetized rats (220-250 g body weight) were administered IV either FGF23^28-251 (0.1 μg kg body weight^−1) or FGF23^180-251 (0.1 μg kg body weight^−1) or vehicle. Before and 3 h after the injection, blood was drawn from the carotid artery and urine was collected through bladder catheterization. Plasma and urine chemistry of animals were analyzed using Vitros Chemistry Analyzer (Ortho-Clinical Diagnosis). 10- to 15-week old Hyp mice were fasted for 8-12 h before administering IP either FGF23^180-251 (1 mg) or FGF23^180-205 (860 μg) or vehicle. Before and 2 h, 4 h, 8 h, and 24 h after the injection, urine and serum samples were collected. Phosphate concentrations in urine and serum were determined using Phosphorus Liqui-UV Test (Stanbio Laboratory), and urine creatinine levels were measured using DetectX™ Urinary Creatinine Detection Kit (LuminosAssays).

For assay [2], the system named is tyrosine phosphorylation of FRS2α and downstream activation of MAP kinase cascade. In words: Phosphorylation of FRS2α and 44/42 MAP kinase in HEK293-Klotho cells. Type of assay: cell-based. Particulars: for inhibition of FGF23-induced phosphorylation of FRS2α and MAP kinase activation: FGF23^28-251 1 nM, 10 min. The procedure:
Subconfluent HEK293-Klotho cells (Kurosu et al., “Regulation of Fibroblast Growth Factor-23 Signaling by Klotho,” J Biol Chem 281(10):6120-6123 (2006), which is hereby incorporated by reference in its entirety) were serum starved for 16 h and then stimulated for 10 min with either FGF23^28-251 (0.33 to 10 nM) or FGF23^180-251 (0.76 to 76.3 nM). In parallel experiments, cells were stimulated with FGF23^28-251 (1 nM) alone or with FGF23^28-251 (1 nM) mixed with increasing concentrations of either FGF23^180-251 (0.76 to 76.3 nM) or FGF23^180-205 (0.1 to 10 μM). Cell stimulation with FGF2 (2.9 nM) alone or FGF2 (2.9 nM) mixed with increasing concentrations of FGF23^180-251 (0.76 to 76.3 nM) served as controls. Similarly, subconfluent cells of a CHO cell line stably expressing Klotho (Imura et al., “Secreted Klotho Protein in Sera and CSF: Implication for Post-translational Cleavage in Release of Klotho Protein from Cell Membrane,” FEBS Lett 565(1-3):143-147 (2004), which is hereby incorporated by reference in its entirety) were treated with either FGF23^28-251 (0.067 to 20 nM) or FGF23^28-200 (0.04 to 12 nM).
In a separate experiment, the biological activity of the bacterially expressed FGF23^28-251 protein was compared to that of FGF23^25-251 expressed in the mouse myeloma cell line NS0 (R&D Systems). Subconfluent HEK293-Klotho cells were serum starved, and then treated with either of the two FGF23 proteins.
After stimulation, the cells were lysed (Kurosu et al, “Suppression of Aging in Mice by the Hormone Klotho,” Science 309(5742):1829-1833 (2005), which is hereby incorporated by reference in its entirety), and cellular proteins were resolved on SDS-polyacrylamide gels, transferred to nitrocellulose membranes, and the protein blots were probed with antibodies to phosphorylated FGF receptor substrate-2α (FRS2α), phosphorylated 44/42 MAP kinase and non-phosphorylated 44/42 MAP kinase, and Klotho. Except for the anti-Klotho antibody (Kato et al., “Establishment of the Anti-Klotho Monoclonal Antibodies and Detection of Klotho Protein in Kidneys,” Biochemical Biophysical Res Communications 267(2):597-602 (2000), which is hereby incorporated by reference in its entirety), all antibodies were from Cell Signaling Technology.

Assay [3] relates to Sprague-Dawley rats. As to the kind of experiment: Plasma and urine phosphate in Sprague-Dawley rats after IV injection. The format is in vivo, rat. Conditions: IV 0.1 μg kg body weight^−1, 3 h, healthy rats.
From the text: as §1

The text below walks through data of patent publication US8889621B2, “Inhibiting binding of FGF23 to the binary FGFR-Klotho complex for the treatment of hypophosphatemia” (New York University, priority 2009, dated 2014).

“Also recorded” adds a separate entry of the source. Peptide text beside a SMILES is read from it.

As to `CSCC[C@H](NC(=O)[C@H](CCCNC(=N)N)NC(=O)[C@H](C)NC(=O)[C@H](CCCNC(=N)N)NC(=O)[C@@H]1CCCN1C(=O)[C@H](CCCCN)NC(=O)[C@H](CC(C)C)NC(=O)[C@@H](NC(=O)[C@H](CC(N)=O)NC(=O)[C@H](CC(C)C)NC(=O)[C@@H]1CCCN1C(=O)[C@H](CC(=O)O)NC(=O)[C@H](CCCNC(=N)N)NC(=O)[C@H](CCC(=O)O)NC(=O)[C@H](CO)NC(=O)[C@H](CC(=O)O)NC(=O)[C@H](CC(=O)O)NC(=O)[C@H](CCC(=O)O)NC(=O)[C@H](C)NC(=O)[C@@H](N)CO)C(C)C)C(=O)N[C@H](C(=O)N1CCC[C@H]1C(=O)N[C@@H](C)C(=O)N1CCC[C@H]1C(=O)N[C@@H](C)C(=O)N[C@@H](CO)C(=O)O)[C@@H](C)O` [FGF23^180-205] (H-SAEDDSERDPLNVLKPRARMTPAPAS-OH; N-terminus and C-terminus assumed), the serum phosphate result in assay [1] is “increase”. The “inhibition of FGF23-induced phosphorylation of FRS2α and MAP kinase activation” value in assay [2] is “inhibited, in a dose-dependent fashion”.

B1: FGF23^28-251: human FGF23 (A28 to I251), bioactive full-length ligand expressed in E. coli (protein, listed as Homo sapiens)
chain: ASPLLGSSWGGLIHLYTATARNSYHLQIHKNGHVDGAPHQTIYSALMIRSEDAGFVVITGVMSRRYLCMDFRGNIFGSHYFDPENCRFQHQTLENGYDVYHSPQYHFLVSLGRAKRAFLPGMNPPPYSQFLSRRNEIPLIHFNTPIPRRHTRSAEDDSERDPLNVLKPRARMTPAPASCSQELPSAEDNSPMASDPLGVVRGGRVNTHAGGTGPEGCRPFAKFI
On to B1, for which, in assay [3], the “excretion rate and fractional excretion of phosphate” value is reported as “increased”; the plasma phosphate result is given as “significant decrease; also recorded: induced hypophosphatemia”.

B2: FGF23^180-251: 72-amino acid C-terminal tail of human FGF23 (S180 to I251), expressed in E. coli (protein, listed as Homo sapiens)
chain: SAEDDSERDPLNVLKPRARMTPAPASCSQELPSAEDNSPMASDPLGVVRGGRVNTHAGGTGPEGCRPFAKFI
B2: the renal phosphate excretion entry in assay [1] (IP 1 mg) is recorded as “decrease”. In assay [1], the serum phosphate result is recorded as “elevated”. Moreover, in assay [3], the “excretion rate and fractional excretion of phosphate” value is given as “renal phosphate retention; also recorded: decreased”; the plasma phosphate result was “induced hyperphosphatemia”. For the same molecule, the “inhibition of FGF2-induced phosphorylation of FRS2α and MAP kinase activation” value in assay [2] (FGF2 2.9 nM) is reported as “failed to inhibit”. Also, the “inhibition of FGF23-induced phosphorylation of FRS2α and MAP kinase activation” value in assay [2] was “inhibited, in a dose-dependent fashion”. Further, the “FGFR activation (FRS2α and 44/42 MAP kinase phosphorylation as readouts)” value in assay [2] (peptide alone / with FGF23) is recorded as “had no activity alone; also recorded: functioned as an antagonist”.
